According to patent US20230295305A1 (GRITSTONE BIO, published 2023):

Experiments:
[1] = target: T1, HLA-A*02:01 / … complex (HLA-PEPTIDE target G8) on cells (human); assay: cell-based or functional assay
[2] = target: T2, CD3 on CD3+ Jurkat cells; assay: flow cytometry, Format 41 bispecific on CD3+ Jurkat cells
T2 construct: whole, on cells

[3] = target: T1, HLA-A*02:01 / … complex (HLA-PEPTIDE …); assay: flow cytometry, Format 41 bispecific on A375 cells expressing ~300,000 copies of the pHLA 10mer
[4] = target: T3, biotinylated pHLA: HLA subtype A*02:01 complexed with … (HLA-PEPTIDE target G8) (human); assay: MSD specificity ratio; threshold for selection of the 12 hit clones of Table 14
T3 construct: Soluble biotinylated pHLA coupled to U-PLEX linker 1 in the MSD assay; also called pHLA target
Description: G8 scFv screening was conducted using the Meso Scale Discovery U-PLEX Development Pack, 9-assay (cat. No. K15234N). The pack contains a 10-spot U-PLEX plate with 9 activated spots and 9 unique linkers as well as stop solution and read buffer. Biotinylated pHLA and biotinylated Protein L were each diluted to 33 nM using PBS+0.5% BSA. For each plate, 200 μL of the diluted pHLA or protein L was mixed with 300 μL of the corresponding Linker (see Table 9) and incubated at room temperature for 30 minutes.
Following the 30-minute incubation, 200 μL stop solution was added to each linker-pHLA solution. They were again incubated for 30 minutes at room temperature. These volumes were scaled based on the number of plates. The linker-pHLA solutions were then a 10× solution. They were then pooled together and further diluted with stop solution to the final 1× concentration. For example, for one plate with one linker, 600 μL pHLA would be diluted with 5.4 mL stop solution for the 1× concentration with a total volume of 6 mL. For one plate using 8 linkers, 600 μL of each linker was pooled to give 4.8 mL volume and 1.2 mL additional stop solution added for the final 6 mL volume. All volumes were scaled for additional plates. The pooled linker-pHLA solution was then coated onto the 10-spot plate as 50 μL/well, the plate sealed and stored at 4° C. overnight.
Samples, periplasmic extracts (PPE) were diluted 40-fold with PBS+1% BSA. The plate was washed 3 times with PBS+0.05% Tween and samples added as 50 μL/well. Plates were incubated at room temperature shaking for 2 hours. The plates were washed as before and 50 μL of 1 μg/mL SulfoTag anti-Myc tag (Abcam, ab206486) was added to each well. The anti-Myc tag antibody was sulfo-tag labeled using the MSD Gold Sulfo-tag NHS-Ester Conjugation kit (Meso Scale Discovery, R31AA-2) at a challenge ratio of 10. The plates were incubated for 1 hour shaking at room temperature. The plate wash was repeated and 150 μL 2× Read Buffer T (Meso Scale Discovery, R92TC-2) was added to all wells and the plate read immediately on the Quickplex SQ 120.

T2 sequence (P07766 23-207): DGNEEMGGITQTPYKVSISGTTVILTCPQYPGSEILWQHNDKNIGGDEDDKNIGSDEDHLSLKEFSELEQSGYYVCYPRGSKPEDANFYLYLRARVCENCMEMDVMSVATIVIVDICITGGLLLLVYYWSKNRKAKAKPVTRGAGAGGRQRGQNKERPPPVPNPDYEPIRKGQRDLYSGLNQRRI

Row | target/OTLA specificity [4] | Binder | also measured
1 | – | 5G06NT Format 41 diabody bispecific antibody (anti-G8 x anti-CD3) (bispecific antibody, V domains shown) VH: EVQLLESGGGLVQPGGSLRLSCAASGFTFSDYYMSWVRQAPGKGLEWVSGINWPGGSTGYADSVKGRFTISRDNSKNTLYLQMNSLRAEDTAVYYCARVEQGYDIYYFYYMDVWGKGTTVTVSS VL: DIQMTQSPSSLSASVGDRVTITCRASQSISSYLNWYQQKPGKAPKLLIYKASSLESGVPSRFSGSGSGTDFTLTISSLQPEDFATYYCQQSYSAPYTFGPGTKVDIK | EC 50 (nM), cytotoxicity of A375 FoxE1 cells [1]: 0.08 nM; EC50 [2]: 41 nM; EC50 [3]: 0.11 nM
2 | – | 1B03 (G8-1B03, Parent A) Format 41 diabody bispecific antibody (anti-G8 x anti-CD3) (bispecific antibody, V domains shown) VH: EVQLLESGGGLVQPGGSLRLSCAASGFTFSDYYMSWVRQAPGKGLEWVSGINWNGGSTGYADSVKGRFTISRDNSKNTLYLQMNSLRAEDTAVYYCARVEQGYDIYYYYYMDVWGKGTTVTVSS VL: DIQMTQSPSSLSASVGDRVTITCRASQSISSYLNWYQQKPGKAPKLLIYKASSLESGVPSRFSGSGSGTDFTLTISSLQPEDFATYYCQQSYSAPYTFGPGTKVDIK | EC50 [2]: 161 nM; EC50 [3]: 72.8 nM
3 | > 50 ratio | 05A03 scFv (scFv, V domains shown, As m4: periplasmic-extract scFv) VH: EVQLLESGGGLVQPGGSLRLSCAASGYTFSDYYMSWVRQAPGKGLEWVSGINWPGGSTGYADSVKGRFTISRDNSKNTLYLQMNSLRAEDTAVYYCARVEQGYDIYYYYYMDVWGKGTTVTVSS VL: DIQMTQSPSSLSASVGDRVTITCRASQSISSYLNWYQQKPGKAPKLLIYKASSLESGVPSRFSGSGSGTDFTLTISSLQPEDFATYYCQQSYSAPYTFGPGTKVDIK | –
4 | > 50 ratio | 05G09 scFv (scFv, V domains shown, As m4; also called 0509) VH: EVQLLESGGGLVQPGGSLRLSCAASGFTFSDYYMSWVRQAPGKGLEWVGGINWPGGSTDYADSVKGRFTISRDNSKNTLYLQMNSLRAEDTAVYYCARVEQGYDIYYYYYMDVWGKGTTVTVSS VL: DIQMTQSPSSLSASVGDRVTITCRASQSISSYLNWYQQKPGKAPKLLIYKASSLESGVPSRFSGSGSGTDFTLTISSLQPEDFATYYCQQSYSAPYTFGPGTKVDIK | –
5 | > 50 ratio | 05C04 scFv (scFv, V domains shown, As m4: periplasmic-extract scFv) VH: EVQLLESGGGLVQPGGSLRLSCAASGYTFSDYYMSWVRQAPGKGLEWVSGINWPGGYTGYADSVKGRFTISRDNSKNTLYLQMNSLRAEDTAVYYCARVEQGYDIYYYYYMDVWGKGTTVTVSS VL: DIQMTQSPSSLSASVGDRVTITCRASQSISSYLNWYQQKPGKAPKLLIYKASSLESGVPSRFSGSGSGTDFTLTISSLQPEDFATYYCQQSYSAPYTFGPGTKVDIK | –
6 | > 50 ratio | 05A08 scFv (scFv, V domains shown, As m4: periplasmic-extract scFv) VH: EVQLLESGGGLVQPGGSLRLSCAASGYTFSDYYMSWVRQAPGKGLEWVGNINWNGGSTLYADSVKGRFTISRDNSKNTLYLQMNSLRAEDTAVYYCARVEQGYDNYYYYYMDVWGKGTTVTVSS VL: DIQMTQSPSSLSASVGDRVTITCRASQSISSYLNWYQQKPGKAPKLLIYKASSLESGVPSRFSGSGSGTDFTLTISSLQPEDFATYYCQQSYSAPYTFGPGTKVDIK | –
7 | > 50 ratio | 09D01 scFv (scFv, V domains shown, As m4: periplasmic-extract scFv) VH: EVQLLESGGGLVQPGGSLRLSCAASGFTFSDYYMSWVRQAPGKGLEWVSGINWHHGSTGYADSVKGRFTISRDNSKNTLYLQMNSLRAEDTAVYYCARVEQGYDIYYYYYMDVWGKGTTVTVSS VL: DIQMTQSPSSLSASVGDRVTITCRASQSISSYLNWYQQKPGKAPKLLIYKASSLESGVPSRFSGSGSGTDFTLTISSLQPEDFATYYCQQSYSAPYTFGPGTKVDIK | –
8 | > 50 ratio | 09G01 scFv (scFv, V domains shown, As m4: periplasmic-extract scFv) VH: EVQLLESGGGLVQPGGSLRLSCAASGFTFSDYYMSWVRQAPGKGLEWVSVINWPGSSTGYADSVKGRFTISRDNSKNTLYLQMNSLRAEDTAVYYCARVEQGYDIYYYYYMDVWGKGTTVTVSS VL: DIQMTQSPSSLSASVGDRVTITCRASQSISSYLNWYQQKPGKAPKLLIYKASSLESGVPSRFSGSGSGTDFTLTISSLQPEDFATYYCQQSYSAPYTFGPGTKVDIK | –
9 | > 50 ratio | 09D06 scFv (scFv, V domains shown, As m4: periplasmic-extract scFv) VH: EVQLLESGGGLVQPGGSLRLSCAASGFTFSDYYMSWVRQAPGKGLEWVSGINWPGSSTGYADSVKGRFTISRDNSKNTLYLQMNSLRAEDTAVYYCARVRQGYDYYYYYYMDVWGKGTTVTVSS VL: DIQMTQSPSSLSASVGDRVTITCRASQSISSYLNWYQQKPGKAPKLLIYKASSLESGVPSRFSGSGSGTDFTLTISSLQPEDFATYYCQQSYSAPYTFGPGTKVDIK | –
10 | > 50 ratio | 05G06 scFv (scFv, V domains shown, As m4: periplasmic-extract scFv; also called 04A11) VH: EVQLLESGGGLVQPGGSLRLSCAASGFTFSDYYMSWVRQAPGKGLEWVSGINWPGGSTGYADSVKGRFNISRDNSKNTLYLQMNSLRAEDTAVYYCARVEQGYDIYYFYYMDVWGKGTTVTVSS VL: DIQMTQSPSSLSASVGDRVTITCRASQSISSYLNWYQQKPGKAPKLLIYKASSLESGVPSRFSGSGSGTDFTLTISSLQPEDFATYYCQQSYSAPYTFGPGTKVDIK | –
